Paper PMC13495755 (Journal of the American Chemical Society, 2026)
The star is where a group is joined. 5FAM = O=C1OC2(c3ccc(O)cc3Oc3cc(O)ccc32)c2ccc(C(=O)*)cc21; Ahx = NCCCCCC(=O)O

Tests used:
BCL-xL = BCL-xL (UniProt Q07817); test: fluorescence polarisation; direct FA titration of the labeled BID peptide with BCL-xL or MCL-1
MCL-1 = MCL-1 (UniProt Q07820); test: as above
[1] = biological target: T1, Kelch-like protein 20 (KLHL20) (UniProt Q9Y2M5 1-609); test: fluorescence polarisation; direct FA titration of the tracer with KLHL20; settings: both partners purified
T1 construct: Kelch-like protein 20 (KLHL20), E3 ubiquitin ligase adapter; The functional rows use this molecule for KLHL20 of HEK293 cells; also called E3 ligase adapter
T1 sequence (looked up): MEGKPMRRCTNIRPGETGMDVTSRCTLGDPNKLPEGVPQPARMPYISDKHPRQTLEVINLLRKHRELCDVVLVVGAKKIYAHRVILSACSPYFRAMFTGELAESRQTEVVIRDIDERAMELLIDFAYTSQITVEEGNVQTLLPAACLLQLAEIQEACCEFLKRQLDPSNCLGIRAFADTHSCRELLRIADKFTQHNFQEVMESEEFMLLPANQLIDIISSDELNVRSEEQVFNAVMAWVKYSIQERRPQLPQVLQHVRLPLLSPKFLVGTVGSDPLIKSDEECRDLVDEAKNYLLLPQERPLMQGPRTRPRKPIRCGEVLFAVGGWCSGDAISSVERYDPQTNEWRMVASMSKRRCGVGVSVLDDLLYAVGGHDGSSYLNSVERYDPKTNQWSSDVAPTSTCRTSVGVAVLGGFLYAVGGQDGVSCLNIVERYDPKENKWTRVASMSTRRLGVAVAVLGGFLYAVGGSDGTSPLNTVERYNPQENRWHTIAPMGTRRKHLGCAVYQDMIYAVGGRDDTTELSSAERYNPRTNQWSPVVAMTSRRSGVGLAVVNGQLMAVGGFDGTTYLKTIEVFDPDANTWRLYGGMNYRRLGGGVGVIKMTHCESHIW

KLHL20 (303-605) = biological target: T2, KLHL20 (303-605); test: fluorescence polarisation; direct titration of the FAM-labelled tracer peptide with the target protein; FA buffer 20 mM Tris, 150 mM NaCl pH 7.4, 1 mM DTT, 0.01% triton x100
T2 sequence (Q9Y2M5 303-605, species assumed, looked up): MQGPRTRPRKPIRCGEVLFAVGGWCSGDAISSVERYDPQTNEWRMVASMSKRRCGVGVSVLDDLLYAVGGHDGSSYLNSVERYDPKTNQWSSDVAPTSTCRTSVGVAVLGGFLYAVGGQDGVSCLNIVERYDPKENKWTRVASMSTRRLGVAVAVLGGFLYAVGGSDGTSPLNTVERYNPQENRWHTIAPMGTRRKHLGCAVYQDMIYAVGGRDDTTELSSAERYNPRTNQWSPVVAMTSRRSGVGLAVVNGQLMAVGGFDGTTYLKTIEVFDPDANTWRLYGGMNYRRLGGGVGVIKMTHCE

MCL-1 (172-327) = biological target: T3, MCL-1 (172-327); test: fluorescence polarisation; competitive fluorescence anisotropy; target protein (BCL-xL or MCL-1) fixed at 150 nM, FAM-BID tracer fixed at 25 nM, competitor protein titrated in; FA buffer 20 mM Tris, 150 mM NaCl pH 7.4, 1 mM DTT, 0.01% triton x100 (legends: 20 mM Tris-HCl, 150 mM NaCl, pH 7.5); triplicate; logistic fit; settings: both partners purified
T3 construct: MCL-1 residues 172-327 as labelled; source: E. coli BL21 DE3, purified (His-trap, SUMO tag removed with His-Ulp1, reverse His-trap, Superdex 75); not shown: His6, N-terminal, cleaved; SUMO, N-terminal, cleaved
T3 chain: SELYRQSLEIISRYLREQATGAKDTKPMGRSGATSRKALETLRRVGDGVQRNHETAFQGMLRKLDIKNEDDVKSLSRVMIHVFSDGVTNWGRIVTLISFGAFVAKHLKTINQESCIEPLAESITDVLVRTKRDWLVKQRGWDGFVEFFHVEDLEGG

BCL-xL (1-26 + 81-198) = biological target: T4, BCL-xL (1-26 + 81-198); test: as above; settings: both partners purified
T4 construct: BCL-xL, first stretch of the loop-deleted construct; BCL-xL, second stretch; Loop between the two stretches deleted; no linker; source: E. coli BL21 DE3, purified (His-trap, SUMO tag removed with His-Ulp1, reverse His-trap, Superdex 75); not shown: His6, N-terminal, cleaved; SUMO, N-terminal, cleaved
T4 chain: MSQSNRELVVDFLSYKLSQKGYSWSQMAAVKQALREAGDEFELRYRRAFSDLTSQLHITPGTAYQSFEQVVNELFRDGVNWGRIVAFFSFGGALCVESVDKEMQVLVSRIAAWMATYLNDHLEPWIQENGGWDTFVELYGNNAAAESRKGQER

Sequence of MCL-1 (Q07820 whole entry): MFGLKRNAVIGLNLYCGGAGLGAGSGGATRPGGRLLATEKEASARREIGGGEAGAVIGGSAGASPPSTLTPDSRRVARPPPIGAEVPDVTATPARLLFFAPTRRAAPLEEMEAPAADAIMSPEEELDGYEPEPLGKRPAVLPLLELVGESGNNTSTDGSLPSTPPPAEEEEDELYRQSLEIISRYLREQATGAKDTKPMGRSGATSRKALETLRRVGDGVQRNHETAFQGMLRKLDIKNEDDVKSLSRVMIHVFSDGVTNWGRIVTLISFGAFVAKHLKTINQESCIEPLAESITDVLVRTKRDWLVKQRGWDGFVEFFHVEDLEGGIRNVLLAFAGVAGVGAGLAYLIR

Molecule: BID, natural effector peptide, labeled competitor peptide
- Kd (BCL-xL): 71 nM
- Kd (MCL-1): 21.5 nM

Molecule: {FAM-Ahx}-LGLPDLVAK-NH2 [tracer of the competitive FA-binding assay for KLHL20]
- Kd [1]: 12000 nM

B1: FAM-DAPK1 (peptide)
peptide: {5FAM-Ahx}-LGLPDLVAK-NH2
SMILES: CC(C)C[C@H](NC(=O)CCCCCNC(=O)c1ccc2c(c1)C(=O)OC21c2ccc(O)cc2Oc2cc(O)ccc21)C(=O)NCC(=O)N[C@@H](CC(C)C)C(=O)N1CCC[C@H]1C(=O)N[C@@H](CC(=O)O)C(=O)N[C@@H](CC(C)C)C(=O)N[C@H](C(=O)N[C@@H](C)C(=O)N[C@@H](CCCCN)C(N)=O)C(C)C
- Kd (KLHL20 (303-605)): 12200 nM

B2: Sc-apCC-2-BCL-xL-11 (designed binder)
chain: SHMGPELAALQAERDALEARLAELDREIAALEWRIPSDPRKKQLIGELLRLFGDRFDLERRIAELDAKIEALKNG
notes: de novo helix-loop-helix design against BCL-xL (Strategy 3, pAE); source: E. coli BL21 DE3, purified (His-trap, TEV cleavage, reverse His-trap, Superdex 75); not shown: His6, N-terminal, cleaved
- IC50 (MCL-1 (172-327)): 500 ± 150 nM
- IC50 (BCL-xL (1-26 + 81-198)): 197 ± 10 nM

B3: Sc-apCC-2-BCL-xL-12 (designed binder)
chain: SHMGPELERLEERRRELERELEELDREIAELEWTIKSDPRKKELIVKLRQLFGRRLRLMGDIFDLDVQIRRLREG
- IC50 (MCL-1 (172-327)): 270 ± 20 nM
- IC50 (BCL-xL (1-26 + 81-198)): 212 ± 18 nM
